What was measured:
[1] = molecular target: transgenic membrane IgM and IgD specific for HEL on mouse B cells; experiment: transgenic B cells incubated with 3 nM protein for 10 min, free sites read by subsequent binding of fluorescein-conjugated HEL
[2] = molecular target: transgenic membrane IgM and IgD specific for HEL on mouse B cells; experiment: cell-based or functional assay
[3] = molecular target: CD21 on Raji B lymphoblastoid cells (human) (UniProt P20023); experiment: 50% inhibition of specific binding of [125I]HEL-C3d2 to Raji cells expressing CD21; two experiments
Sequence of CD21 on Raji B lymphoblastoid cells (human) (P20023 21-1033): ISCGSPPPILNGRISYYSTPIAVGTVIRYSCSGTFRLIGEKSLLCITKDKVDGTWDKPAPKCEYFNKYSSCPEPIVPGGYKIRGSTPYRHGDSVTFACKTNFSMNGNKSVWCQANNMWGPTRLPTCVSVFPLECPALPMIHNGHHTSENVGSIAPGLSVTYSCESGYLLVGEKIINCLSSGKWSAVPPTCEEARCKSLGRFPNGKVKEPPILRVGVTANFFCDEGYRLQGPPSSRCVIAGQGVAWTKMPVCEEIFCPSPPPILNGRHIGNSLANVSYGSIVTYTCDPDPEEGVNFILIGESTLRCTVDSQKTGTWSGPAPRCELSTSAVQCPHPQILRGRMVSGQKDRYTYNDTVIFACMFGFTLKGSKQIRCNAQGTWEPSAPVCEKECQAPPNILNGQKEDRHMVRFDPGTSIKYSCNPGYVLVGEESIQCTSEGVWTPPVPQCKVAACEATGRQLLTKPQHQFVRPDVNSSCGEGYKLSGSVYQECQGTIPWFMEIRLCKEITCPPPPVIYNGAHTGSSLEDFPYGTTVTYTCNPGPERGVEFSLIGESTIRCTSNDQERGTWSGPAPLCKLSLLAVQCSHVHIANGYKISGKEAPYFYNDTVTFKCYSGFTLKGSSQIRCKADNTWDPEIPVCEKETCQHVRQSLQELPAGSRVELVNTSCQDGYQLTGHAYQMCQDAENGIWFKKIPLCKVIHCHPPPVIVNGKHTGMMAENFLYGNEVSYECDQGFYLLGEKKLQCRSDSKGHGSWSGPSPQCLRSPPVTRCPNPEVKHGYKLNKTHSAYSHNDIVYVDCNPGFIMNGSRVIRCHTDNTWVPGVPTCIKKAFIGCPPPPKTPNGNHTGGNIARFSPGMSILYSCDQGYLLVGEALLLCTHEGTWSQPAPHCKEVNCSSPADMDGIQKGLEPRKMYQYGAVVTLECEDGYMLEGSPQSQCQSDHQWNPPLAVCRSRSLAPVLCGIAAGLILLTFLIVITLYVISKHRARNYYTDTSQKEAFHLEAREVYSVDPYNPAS

[4] = molecular target: CD21 on mouse B cells (mouse) (UniProt P19070); experiment: cell-based or functional assay
Sequence of CD21 on mouse B cells (mouse) (P19070 12-1025): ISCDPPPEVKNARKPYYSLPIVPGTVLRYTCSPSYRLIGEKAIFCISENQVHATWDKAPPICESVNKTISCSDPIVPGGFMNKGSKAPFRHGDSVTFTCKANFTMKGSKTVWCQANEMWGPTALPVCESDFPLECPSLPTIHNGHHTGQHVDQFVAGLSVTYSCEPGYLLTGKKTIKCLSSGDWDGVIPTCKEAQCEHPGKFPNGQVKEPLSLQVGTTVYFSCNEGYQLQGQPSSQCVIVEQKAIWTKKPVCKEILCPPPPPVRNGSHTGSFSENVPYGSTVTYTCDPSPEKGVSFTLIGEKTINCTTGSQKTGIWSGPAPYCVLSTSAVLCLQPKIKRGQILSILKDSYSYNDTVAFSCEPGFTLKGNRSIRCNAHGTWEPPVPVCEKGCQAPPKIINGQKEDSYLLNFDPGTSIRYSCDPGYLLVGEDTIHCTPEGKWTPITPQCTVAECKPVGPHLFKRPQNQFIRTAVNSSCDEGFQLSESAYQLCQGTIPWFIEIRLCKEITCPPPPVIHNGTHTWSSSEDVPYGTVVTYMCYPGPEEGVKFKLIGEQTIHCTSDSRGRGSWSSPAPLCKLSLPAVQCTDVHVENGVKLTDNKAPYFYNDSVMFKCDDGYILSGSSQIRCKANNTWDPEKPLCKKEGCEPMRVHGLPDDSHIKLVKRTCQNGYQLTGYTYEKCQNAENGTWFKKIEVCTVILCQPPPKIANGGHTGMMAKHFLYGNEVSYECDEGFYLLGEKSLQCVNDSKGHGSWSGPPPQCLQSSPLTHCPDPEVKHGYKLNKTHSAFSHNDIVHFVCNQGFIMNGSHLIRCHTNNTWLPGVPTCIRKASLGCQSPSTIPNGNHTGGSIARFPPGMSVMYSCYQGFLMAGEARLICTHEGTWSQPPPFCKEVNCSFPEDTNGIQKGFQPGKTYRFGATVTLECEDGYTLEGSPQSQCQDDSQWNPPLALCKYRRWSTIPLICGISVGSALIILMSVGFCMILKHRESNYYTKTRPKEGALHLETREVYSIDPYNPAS

| Substance | % saturation of the anti-HEL sites [1] [%] | threshold for increase in [Ca2+]i in HEL-specific B cells (nM (printed as '7 n')) [2] | IC50 [3] [nM] | threshold for increase in [Ca2+]i in HEL-specific B cells [4] [nM] |
| --- | --- | --- | --- | --- |
| recombinant hen egg lysozyme with YL1/2 epitope tag (HEL.YL) (from UniProt P00698 19-147) | 51 | 7 |  |  |
| HEL-C3d2 recombinant fusion protein (hen egg lysozyme fused to two murine C3d) (from UniProt P00698 19-147; P01027 1006-1302; P01027 1006-1302) |  |  | 8 to 20 | 0.07 |
| HEL-C3d3 recombinant fusion protein (hen egg lysozyme fused to three murine C3d) (from UniProt P00698 19-147; P01027 1006-1302; P01027 1006-1302; P01027 1006-1302) | 47 |  |  | 0.007 |
| HEL-C3d recombinant fusion protein (hen egg lysozyme fused to one murine C3d) (from UniProt P00698 19-147; P01027 1006-1302) |  |  |  | 0.7 |
